Test [1] has as its target T1, 人CEACAM5 on CHO cells (CHO-CEACAM5) (human, UniProt P06731 35-685).
T1 construct: whole, on cells; also called 过表达人CEACAM5的CHO细胞
T1 sequence (looked up): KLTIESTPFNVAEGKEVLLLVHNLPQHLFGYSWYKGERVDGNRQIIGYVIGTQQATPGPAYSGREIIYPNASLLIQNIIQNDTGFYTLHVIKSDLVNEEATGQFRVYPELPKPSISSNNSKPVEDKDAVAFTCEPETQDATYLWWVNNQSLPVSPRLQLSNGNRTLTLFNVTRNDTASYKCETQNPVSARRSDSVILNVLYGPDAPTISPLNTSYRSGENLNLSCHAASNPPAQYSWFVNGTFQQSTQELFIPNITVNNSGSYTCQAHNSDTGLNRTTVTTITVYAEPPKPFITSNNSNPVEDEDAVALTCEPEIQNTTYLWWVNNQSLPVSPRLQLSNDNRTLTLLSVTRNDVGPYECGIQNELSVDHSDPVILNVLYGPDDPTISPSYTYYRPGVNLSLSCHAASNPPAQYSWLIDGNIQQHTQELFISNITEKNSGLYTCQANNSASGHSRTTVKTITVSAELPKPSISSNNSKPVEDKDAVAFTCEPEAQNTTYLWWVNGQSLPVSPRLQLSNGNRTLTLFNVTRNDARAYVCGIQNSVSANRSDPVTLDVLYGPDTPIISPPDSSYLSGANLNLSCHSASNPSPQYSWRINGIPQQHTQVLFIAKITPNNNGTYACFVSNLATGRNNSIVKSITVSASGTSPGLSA
In words: flow cytometry on CHO cells overexpressing human CEACAM5. For orientation: A flow cytometer gives signals particle by particle.

The target in test [2] is T2, 人CEACAM5蛋白 (human CEACAM5 protein) (human, UniProt P06731 35-685, limits assumed).
T2 construct: Soluble protein used for ELISA coating and as SPR analyte; The construct is not described
T2 sequence (looked up): T1 sequence (looked up)
Briefly: ELISA, plate-coated human CEACAM5 protein, goat anti-human IgG HRP.

Another test addresses T3, CD47 on A549 cells (human, UniProt Q08722 19-323).
T3 construct: whole, on cells; A549 cells also express CEACAM5; also called A549细胞上CD47
In words: grade of blocking of SIRPα-mouse Fc binding to CD47 on A549 cells, flow cytometry (reference antibody).

Test [3] deals with T2, 人CEACAM5蛋白 (human CEACAM5 protein). Briefly: SPR (Biacore), antibody captured on protein A chip, CEACAM5 protein as analyte. In general terms: In SPR one partner is held on a chip, and binding of the other changes the refractive index at the surface.
Test [4] addresses T4, 人CEACAM6 on CHO cells (CHO-CEACAM6) (human, UniProt P40199 35-320).
T4 construct: whole, on cells
T4 sequence (looked up): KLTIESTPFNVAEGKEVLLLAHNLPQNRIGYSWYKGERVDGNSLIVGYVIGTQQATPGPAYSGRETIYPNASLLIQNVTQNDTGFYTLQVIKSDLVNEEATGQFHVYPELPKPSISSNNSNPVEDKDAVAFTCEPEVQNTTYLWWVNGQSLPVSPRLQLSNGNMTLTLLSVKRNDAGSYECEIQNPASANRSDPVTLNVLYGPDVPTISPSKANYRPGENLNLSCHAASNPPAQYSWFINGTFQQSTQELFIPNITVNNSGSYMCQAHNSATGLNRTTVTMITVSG
Briefly: flow cytometry on CHO-CEACAM6 stable cells.

The target of test [5] is T2, 人CEACAM5蛋白 (human CEACAM5 protein). Briefly: SPR (Biacore), antibody captured on protein A chip; the text value differs tenfold from Table 8.
Test [6] has as its target 食蟹猴CEACAM5蛋白 (cynomolgus CEACAM5 protein) (cynomolgus monkey). Briefly: ELISA, plate-coated cynomolgus CEACAM5 protein. On the technique in general: ELISA stands for enzyme-linked immunosorbent assay.
Test [7] deals with T2, 人CEACAM5蛋白 (human CEACAM5 protein). Briefly: SPR (Biacore 8K), antibody captured on protein A chip, human CEACAM5 protein as analyte.
Test [8] addresses 人CD47蛋白 (human CD47 protein) (human, UniProt Q08722 19-139, limits assumed). In words: SPR (Biacore 8K), antibody captured on protein A chip, human CD47 protein as analyte.

B1: UM05-C9 (antibody, V domains shown)
VH: QVQLVQSGAEVKKPGASVKVSCKASGYTFTDYAMHWVRQAPGQGLEWIGVISTYSGHTNYNQKFKGRAIMTRDKSISTAYMELSRLRSDDTAVYYCVRGSTTAHYYTMDFWGQGTTVTVSS
VL: DIQMTQSPSSLSASVGDRVTITCGASENIYGTLNWYQQKPGKSPKLLIYGATNLADAVPSRFSGSGSGTDYTLTISSLQPEDVATYYCQNVLSIPYTFGGGTKVEIK
notes: Humanized anti-human CEACAM5/6 antibody; Only the variable domains are tied to it by name; Detected with goat anti-human IgG; also called 人源化抗体UM05-C9; CEACAM5/6抗体UM05-C9
On to B1, for which the values for the EC50 in [1] and in test [2] were 0.637 µg/mL and 0.399 nM, respectively.

B2: UM03-C4 (antibody, V domains shown)
VH: QVQLVESGGGVVQPGGSLRLSCAASGFTFSDYGMAWIRQAPGKGPEWIAFITNLASSIYYADTVTGRFTISRDNSKNTLYLQMNSLRAEDTAVYYCARAGDYRSFPYWGQGTLVTVSA
VL: EIVLTQSPATLSLSPGERATLSCSASSSVNYVNWYQQKPGQAPRILIYGISNLASGVPARFSGSGSGTDFTLTISSLEPEDFAVYYCQQRSTFPPYTFGQGTKLEIK
notes: IgG4 subtype of the humanized anti-human CD47 antibody; also called 人源化CD47单克隆抗体; CD47抗体的IgG4亚型
Regarding B2, the binding result with CD47 on A549 cells is recorded as “binds”.

B3: UM05-L9 (antibody, human IgG1, kappa, V domains shown)
VH: QVQLQQSGPELVRPGVSVKISCKGSGYTFTDYAMHWVKQSHAKSLEWIGVISTYSGHTNYNQKFKGKAIMTVDKSSSTAYMDLARLTSEDSAIYYCVRGSTTAHYYTMDFWGQGTSVTVSS
VL: DIQMTQSPVSLSASVGETVTITCGASENIYGTLNWYQRKQGKSPQLLIYGATNLADGVSSRFSGSGSGRQYSLKISSLHPDDVATYYCQNVLSIPYTFGGGTKLEIKR
notes: also called 人-鼠嵌合抗体UM05-L9; 嵌合抗体UM05-L9
In test [3], B3 yielded a Kd of 6.8 nM, a koff of 0.000445 s⁻¹ and an on-rate constant (kon) of 65400 M⁻¹ s⁻¹. Also, the binding result in [4] is reported as “binds”. Also, binding in test [5] was characterised by a dissociation constant (Kd) of 0.68 nM. Further, a half-maximal effect in [6] (EC50) was put at 0.678 nM.

B4: UM11-L34 (bispecific antibody)
chain 1: not shown
chain 2: DIQMTQSPSSLSASVGDRVTITCGASENIYGTLNWYQQKPGKSPKLLIYGATNLADAVPSRFSGSGSGTDYTLTISSLQPEDVATYYCQNVLSIPYTFGGGTKVEIKRTVAAPSVFIFPPSDEQLKSGTASVVCLLNNFYPREAKVQWKVDNALQSGNSQESVTEQDSKDSTYSLSSTLTLSKADYEKHKVYACEVTHQGLSSPVTKSFNRGEC
Regarding B4, in test [7], the Kd came to 7.43 nM, the koff came to 0.000173 s⁻¹ and the kon is 23300 M⁻¹ s⁻¹. In addition, in test [8], the Kd is 65.7 nM, the koff amounted to 0.0451 s⁻¹ and the kon came out at 686000 M⁻¹ s⁻¹.

The term EC50 denotes the concentration giving half of the maximal effect. Read a low EC50 as an effect from little substance. A word on the Kd: it is the equilibrium constant for the complex coming apart. A high value points to lower affinity. The koff is the rate constant with which the complex falls apart. Higher therefore signals a short-lived complex. A word on the kon: it is the second-order rate constant of association. The low end stands for slower complex formation, the high end for faster complex formation.

The record behind these values is patent CN115819596A (YOUMAI BIOTECHNOLOGY LIANYUNGANG CO LTD, dated 2023).
